T1: human B7-H4 at the cell surface (human, UniProt Q7Z7D3 25-282)
T1 sequence (looked up): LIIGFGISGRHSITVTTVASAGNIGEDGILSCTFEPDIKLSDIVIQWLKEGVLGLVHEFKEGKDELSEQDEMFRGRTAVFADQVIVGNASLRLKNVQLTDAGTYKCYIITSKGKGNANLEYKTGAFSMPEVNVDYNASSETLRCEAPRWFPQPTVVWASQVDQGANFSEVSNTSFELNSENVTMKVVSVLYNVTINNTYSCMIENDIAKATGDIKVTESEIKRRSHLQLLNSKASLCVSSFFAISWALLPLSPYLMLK


Biological target: T1, human B7-H4 at the cell surface
Assay: cell-based or functional assay

IFN-γ production of MART-1 TCR T cells in presence of B7-H4+ TAMs [folds]	Binder
> 2	anti-B7H4 scFv clone 3#54 (scFv) scFv: RPVLTQPPSAAGTPGQRVTISCSGSSSNIGSNYVYWYQQLPGMAPKLLIYTNNQRPSGVPGRFSGSKSGTSASLAISGLRSEDEADYYCAAWDDSLNGWVFGGGTELTVLGGSSRSSSSGGGGSGGGGQVQLQESGPGLVKPSETLSLTCNVSGRSVSSGFYWSWIRQRPGKGLEWVGSIYRSGLTYYNPSLKSRVTISVDTSKNQFSLKLSSVTAADTAVYYCARATPWYYYGMDVWGQGTTVTVSSFEGSEQ
> 2	anti-B7H4 scFv clone 3#68 (scFv) scFv: QPGLTQPPSASGTPGQRVTISCSGSSSNIGSNYVYWYQQFPGTAPKLLIYRNNQRPSGVPDRFSGSKSGTSASLAISGLRSEDEADYYCAAWDDSLSVWVFGGGTKVTVLGGSSRSSSSGGSGSGGGGQVTLKESGAEVKNPGSSVKVSCKASGGTFSSYAISWLRQAPGQGLEWMGWINPNSGGSDYAQRFQGRVTMTRDTSINTVYMELSRLRSDDTAVYYCARVEKRGYYYGMDVWGQGTMVTVSSFEGSEQ

Reference: US20140308259A1 (University of Pennsylvania, published 2014)
